T1: msCLDN18.1
T1 chain: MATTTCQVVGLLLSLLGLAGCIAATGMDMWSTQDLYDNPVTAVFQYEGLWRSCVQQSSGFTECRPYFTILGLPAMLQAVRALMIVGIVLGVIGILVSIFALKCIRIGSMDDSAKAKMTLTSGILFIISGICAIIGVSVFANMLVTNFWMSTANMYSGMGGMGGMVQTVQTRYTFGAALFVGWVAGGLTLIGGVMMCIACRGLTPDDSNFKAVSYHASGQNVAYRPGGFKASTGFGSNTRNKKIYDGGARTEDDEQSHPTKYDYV


Target: T1, msCLDN18.1
Experiment: flow cytometry on HEK-293T overexpressing mouse Claudin 18.1; 5 µg/mL scFv-hIgG2Fc, detected with PE anti-human IgG Fcγ
Protocol: The stained samples were analyzed by flow cytometry.

binding result | Binder
binds | anti-Claudin 18.2 scFv-hIgG2Fc, clone 12H6 (Fc fusion, linker and orientation in the Fc fusion are not restated; not shown: human IgG2 Fc (hIgG2Fc)) EVQLVESGGGLVQPGGSLRLSCAASGFTFSRYWMSWVRQAPGKGLEWVANIKHDGSEKYYVDSVKGRFTFSRDNAKTSLYLQMNSLRVEDTALYYCARYYGGPFDYWGQGTLVTVSSGGGGSGGGGSGGGGSGGGGSEIVLTQSPGTLSLSPGERATLSCRASQSVRSSYLAWYQQKPGQAPRLLIFGASSRATGIPDRFSGSGSGTDFTLTISRLEPEDFAVYYCQQFGSSLTFGGGTKVEIK
binds | anti-Claudin 18.2 scFv-hIgG2Fc, clone 2A10 (Fc fusion, linker and orientation in the Fc fusion are not restated; not shown: human IgG2 Fc (hIgG2Fc)) QVQLQESGPGLVKPSETLSLTCTVSAGSISSYYWNWIRQPAGKGLEWIGRIYTSGSTNYNPSLRSRVTMSVDTSKNQFSLKLSSVTATDTAVYYCASASYTYFDSFDIWGQGTMVTVSSGGGGSGGGGSGGGGSGGGGSDIQLTQSPSFLSASVGDRVTITCRASQDIRNFLAWYQQKPGKAPKLLIYAASTLQSGVPSRFSGSGSGTEFALTVSSLQPEDFATYYCQQVNSYPRTFGQGTKVEIK
binds | anti-Claudin 18.2 scFv-hIgG2Fc, clone 9G2 (Fc fusion, linker and orientation in the Fc fusion are not restated; not shown: human IgG2 Fc (hIgG2Fc)) EVHLLESGGGLVQPWGSLTLSCAASGFTFSNYAMNWVRQAPGKGLEWVSGISGSGGSTYDADSVKGRFTISRDNSKNTLFLQMNSPRAEDTAVYYCATQGYSFGYFESWGQGTLVTVSSGGGGSGGGGSGGGGSGGGGSEIVLTQSPATLSLSPGERATLSCRASQNVNRYLAWYHQKPGQAPRLLIYDAFNRATGIPARFSGSGSGTDFTLTINSLEPEDFAVYYCQQRSDWPLTFGGGTKLEIK
